# Measured values published in US10337022B2, “Methods of increasing root biomass in plants” (Agresearch Limited, priority 2014, dated 2019).
# T1: NINJA (Arabidopsis thaliana, UniProt Q9SV55)
# T1 construct: expressed in transfected cells; host or cells: yeast strain MaV203
# T1 sequence (Q9SV55 with tags, fused parts or gaps): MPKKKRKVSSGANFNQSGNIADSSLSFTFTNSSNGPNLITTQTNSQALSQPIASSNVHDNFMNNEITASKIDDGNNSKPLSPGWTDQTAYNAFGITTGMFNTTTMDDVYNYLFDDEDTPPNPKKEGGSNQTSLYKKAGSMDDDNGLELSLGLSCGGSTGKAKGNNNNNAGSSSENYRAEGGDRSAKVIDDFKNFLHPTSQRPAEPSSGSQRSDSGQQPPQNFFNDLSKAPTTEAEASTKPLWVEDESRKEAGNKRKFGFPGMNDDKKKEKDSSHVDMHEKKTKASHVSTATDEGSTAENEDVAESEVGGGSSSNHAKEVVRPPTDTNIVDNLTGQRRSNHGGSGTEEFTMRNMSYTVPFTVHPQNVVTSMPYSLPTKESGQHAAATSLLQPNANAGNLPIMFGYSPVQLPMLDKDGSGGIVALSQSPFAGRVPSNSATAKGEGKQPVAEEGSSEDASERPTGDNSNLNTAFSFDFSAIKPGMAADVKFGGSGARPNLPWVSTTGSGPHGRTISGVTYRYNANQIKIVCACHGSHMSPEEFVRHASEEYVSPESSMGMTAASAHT
# T2: DELLA (RGA1) (Arabidopsis thaliana, UniProt Q9SLH3)
# T2 construct: expressed in transfected cells; host or cells: yeast strain MaV203
# T2 sequence (Q9SLH3 with tags, fused parts or gaps): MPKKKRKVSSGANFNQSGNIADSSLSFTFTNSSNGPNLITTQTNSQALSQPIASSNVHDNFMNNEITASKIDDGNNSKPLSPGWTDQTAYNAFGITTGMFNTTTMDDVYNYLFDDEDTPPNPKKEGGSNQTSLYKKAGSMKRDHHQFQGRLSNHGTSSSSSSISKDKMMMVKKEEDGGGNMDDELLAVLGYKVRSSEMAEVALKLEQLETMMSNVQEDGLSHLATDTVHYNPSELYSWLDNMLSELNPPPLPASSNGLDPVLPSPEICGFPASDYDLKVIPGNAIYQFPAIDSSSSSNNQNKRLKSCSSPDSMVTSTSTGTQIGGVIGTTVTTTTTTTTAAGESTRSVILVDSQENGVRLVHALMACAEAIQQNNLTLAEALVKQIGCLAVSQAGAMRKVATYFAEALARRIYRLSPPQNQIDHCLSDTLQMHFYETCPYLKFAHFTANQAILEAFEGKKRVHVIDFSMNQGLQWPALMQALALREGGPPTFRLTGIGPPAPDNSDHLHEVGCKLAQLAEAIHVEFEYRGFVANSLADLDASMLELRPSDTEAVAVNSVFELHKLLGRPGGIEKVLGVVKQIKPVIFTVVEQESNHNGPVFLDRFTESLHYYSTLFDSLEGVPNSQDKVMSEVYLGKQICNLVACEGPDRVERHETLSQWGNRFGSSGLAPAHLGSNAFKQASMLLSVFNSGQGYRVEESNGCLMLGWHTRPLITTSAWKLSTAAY
# B1: Arabidopsis PPD: Arabidopsis thaliana PEAPOD 1 protein, At4g14713, SEQ ID NO: 1 (protein, listed as Arabidopsis thaliana)
# chain: MDVGVSPAKSILAKPLKLLTEEDISQLTREDCRKFLKDKGMRRPSWNKSQAIQQVLSLKALYEPGDDSGAGIFRKILVSQPVNPPRVTTTLIEPSNELEACGRVSYPEDNGACHRMDSPRSAEFSGGSGHFVSEKDGHKTTISPRSPAETSELVGQMTIFYSGKVNVYDGIPPEKARSIMHFAANPIDLPENGIFASSRMISKLISKEKMMELPQKGLEKANSSRDSGMEGQANRKVSLQRYREKRKDRKFSKAKKCPGVASSSLEMFLNCQPRMKAAYSQNLGCTGSPLHSQSPESQTKSPNLSVDLNSEGI
# Experiments:
# NINJA = molecular target: T1, NINJA; assay: Yeast two hybrid (Y2H) interaction with NINJA; type: binding; conditions: PPD1 as bait protein
# Description: Combinations of bait and prey constructs were used to co-transform yeast strain MaV203 (Invitrogen), with selection on synthetic dropout (SD) SD/-Leu/-Trp agar plates. Transformed strains were tested for interactions using 10 μl droplets of 1 in 10 and 1 in 100 dilutions on SD/-Leu/-Trp/-His plates with different concentrations of 3-aminotriazol (3-AT) (Sigma).
# DELLA (RGA1) = molecular target: T2, DELLA (RGA1); assay: Yeast two-hybrid (Y2H) interaction with DELLA (RGA1); type: binding; conditions: PPD1-DBD as bait, selective medium with 15 mM 3AT
# Text: The ProQuest two-hybrid system (Invitrogen) was used to analyse interactions between PPD1, and RGA1. Full length coding sequences of PPD1, together with truncation or deletion derivatives of PPD1 (PPD1Δppd, PPD1Δtify, and PPD1Δjas*) (FIG. 4), were Gateway sub-cloned into pDEST32 (N-terminal GAL4DBD) or pDEST22 (N-terminal GAL4AD). When translated these generated the following peptide sequences od SEQ ID NO: 58, 68, 69, 70, 71, 72, which are PPD1-DBD, RGA1, RGA1-AD, PPD1-ppd-DBD, PPD1-tify-DBD, PP1-jas*-DBD respectively.
# Combinations of bait and prey constructs were used to co-transform yeast strain MaV203 (Invitrogen), with selection on synthetic dropout (SD) SD/-Leu/-Trp agar plates. Transformed strains were tested for interactions using 10 μl droplets of 1 in 10 and 1 in 100 dilutions on SD/-Leu/-Trp/-His plates with different concentrations of 3-aminotriazol (3-AT) (Sigma). The PPD1-RGA1 interaction was tested with PPD1-DBD used as bait. Transformed yeast was spotted as a ten-fold dilution on control medium (−2) or selective medium (−3) with 15 mM 3AT. Controls were empty vectors, DBD, GAL4 DNA binding domain, AD, GAL4 activation domain (FIG. 4).
molecule,measurement,setting,value
B1,Y2H interaction with NINJA,NINJA,direct interactor
same,Y2H binding to DELLA (RGA1),DELLA (RGA1),can directly bind
